Assay results taken from patent publication US20240358834A1 (University of Pennsylvania, published 2024).

T1: human CD19 protein with a biotinylated AviTag (Acrobiosystems) (human, UniProt P15391 20-291, biotinylated AviTag)
T1 construct: Captured on streptavidin-coated microplate wells; also called biotinylated-AviTag-CD19; hCD19; not shown: AviTag
T1 sequence (looked up): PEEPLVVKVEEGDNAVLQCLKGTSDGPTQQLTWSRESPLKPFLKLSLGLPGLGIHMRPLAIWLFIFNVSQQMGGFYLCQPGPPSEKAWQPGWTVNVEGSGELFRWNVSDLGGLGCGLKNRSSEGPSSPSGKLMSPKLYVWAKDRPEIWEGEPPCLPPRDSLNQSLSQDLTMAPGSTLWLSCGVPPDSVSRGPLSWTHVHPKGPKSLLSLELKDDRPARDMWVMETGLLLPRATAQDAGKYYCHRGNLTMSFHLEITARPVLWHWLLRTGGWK


Each binder was assayed against T1, human CD19 protein with a biotinylated … (assay: phage ELISA, biotinylated AviTag CD19 on streptavidin wells; signal ratio to FMC63 standard).
Description: To identify unique human CD19-binding monoclonal scFv from the panned libraries, individual phage antibody clones were expanded, assessed for binding to CD19 by ELISA, and subjected to nucleotide sequencing to identify those clones that were unique. A total of 84 scFvs were randomly selected from the panned libraries (70 from P3 and 14 from P4).

Row | Binder | ELISA hCD19 (ratio FMC63)
1 | scFv 2 (scFv, Canine scFv (VL-linker-VH); also called scFv_02; P3-21) scFv: SYVLTQSPSLSGSLGQKVTISCTGSRSNLGGNYVGWYQQVPGMAPRNVIYANDFRPSRIPARFSASKSGTSATLTISGLQAEDEADYFCSSWDDDLGSHVFGSGTQLTILGGGSSRSSSSGGGGSGGGGEEQLVEFGGDLVKPGGSLRLSCVASGFSFSSYDMSWVRQAPGKGLQWVASTNFDGSRTYYTDAVEGRFTISRDNARNTVYLQMNSLRAEDTAVYYCARGMGSWGASTFGYWGQGTLVTVSSASTTAPSVTSGQAGQHHHHHHGAYPYDVPDYAS | 0.49 ratio to FMC63
2 | scFv 17 (scFv, Canine scFv (VL-linker-VH); also called P4-05A; P4-05B) scFv: QPVLTQPPSVSAALGQRVTISCTGSKTNIGSGYDVQWYQQLPGKSPKTIIYGNSNRPSGVPARFSGSKSGSIATLTITGIQAEDEADYYCQSFDDNVDGYVFGSGTQLTILGGGSSRSSSSGGGGSGGGGEVPLVESGGDLVKPGGSLRLSCVASGFTFSSYGMSWVRQAPGKGLQWVAYINGGGSSTSYADAVRGRFTISRDNAENTLYLQMNSLRADDTAVYYCSNYYGIYWDSDYWGQGTLVTVSSESPSPPNLTSGQAGQHHHHHHGAYPYDVPDYAS | 0.66 ratio to FMC63
3 | scFv 18 (scFv, Canine scFv (VL-linker-VH); also called P4-12) scFv: QSALTQTASVSGSLGQKVTISCTGSRSNIGANYVGWYQQVPGIGPRTVIFGYNYRPSGVPDRFSSSKSGNSATLTISGLQAEDEAEYYCSTWDSSLNAYVFGSGTQLTVLGGGSSRSSSSGGGGSGGGGEVPLVESGGDLVKPGGSLRLSCVASGFTLSNYGMSWVRQSPGKGLQWVAAIRSGGNTYYADAVKGRFTISRDNAKNTLYLQMNSLRAEDTAVYYCASQWGDWGHFEYWGQGTLVTVSSASTTAPSVTSGQAGQHHHHHHGAYPYDVPDYAS | 0.27 ratio to FMC63
4 | scFv 20 (scFv, Canine scFv (VL-linker-VH); also called P3-12) scFv: QSVLNQPPSVSVSLGQTATISCSGESLSKYYAQWFQQKAGQVPVLVIYKDTERPSGIPDRFSGSSSGNTHTLTISGARAEDEADYYCESEVSPDTIVFGGGTHLTVLGGGSSRSSSSGGGGSGGGGEVQLVESGGDLVKPGGSLRLSCVASGFTFSSYAMSWVRQAPGEGLQWVAYINSAGSTTYYADAVKGRFTISRDNARNTVYLQMNSLRAEDTAVYYCGRYYYGLDYWGPGTSVFVSSESPSPPNLTSGQAGQHHHHHHGAYPYDVPDYAS | 0.47 ratio to FMC63
5 | scFv 22 (scFv, Canine scFv (VL-linker-VH); also called P3-09; P3-11) scFv: QPVLTQPPSVSGSLGQRVTISCTGSSSNVGYGDYVGWYQQLPGTSPRTLIYSSSSRPSGVPDRFSGSRSGSTATLTISGLQAEDEADYHCSSYDTSLNGFVFGSGTQLTILGGGSSRSSSSGGGGSGGGGELTLQESGPGLVKPAQTLSLTCTVSGDSVTSSHFWHWIRQRPGRGLEWMGYWSDITIYSPTFQGRISITVDTARNQFSLHLNSVTTEDSAVYFCARYNGYVDYLDVWGQGTLITVSSASTTAPSVTSGQAGQHHHHHHGAYPYDVPDYAS | 0.21 ratio to FMC63
6 | scFv 25 (scFv, Canine scFv (VL-linker-VH); also called P3-40) scFv: DIVMTQTPLSLSVSPGETASISCKASQSLLHSNGNTYLNWFRQKPGQSPQVLIYQVSNRDTGVPDRFSGSGSGTDFTLRISRVEADDAGVYYCGQGIQYPPTFGAGTKVELKGGSSRSSSSGGGGSGGGGEEQLVEFGGDLVKPGGSLRLSCVASGFTFSSLSMNWIRQAPGKGLQWVSQISPDGTITGYTDAVKGRFTISRDNAKNTLYLQMNSLRDEDTAIYYCAKSRYTDTYPFDYWGPGTLVTVSSESPSPPNLTSGQAGQHHHHHHGAYPYDVPDYAS | 0.15 ratio to FMC63
7 | scFv 13 (scFv, Canine scFv (VL-linker-VH); also called P3-36; P3-38) scFv: QPVLTQPPSVSGALGQTVTISCSGSHTNIGSGFDVQWYQQLPGKSPQTLVYANINRPSGVPARFSGSKSGSTATLTITGVQAEDEADYYCQSYDDNFDYVFGSGTQLTVLGGGSSRSSSSGDGGSGGGGEVQLVESGGGLMKPGGSLKLSCLASGFTFSRYYMYWVRQAPGKGLQWVAQISSDGRRTYYADAVQGRFTISRDNVKNTVYLQMNSLSDEDTAVYYCVREDYFDFDYWGQGTLVTVSSASTTAPSVTSGQAGQHHHHHHGAYPYDVPDYAS | 0.28 ratio to FMC63
8 | scFv 10 (scFv, Canine scFv (VL-linker-VH); also called P3-01) scFv: QAVLNQPASVSGALGQTVTISCSGSHTNIGSGFDVQWYQQLPGKSPQTIIYANINRPSGVPARFSGSKSGSTATLTITGVQAEDEADYHCQSFDDDLDGPVFGGGTHLTVLGGGSSRSSSSGGGGSGGGGEVQLVQSGGDLVKPGGSLKISCVASGLTFNRNYMTWIRQAPGKGLQWVSEINPDGSTTSYTDAVRGRFTISRDNAKNTLYLQMNSMRDEDTAVYYCARSSWGSFDYWGQGTLVTVSSASTTAPSVTSGQAGQHHHHHHGAYPYDVPDYAS | 0.77 ratio to FMC63
9 | scFv 15 (scFv, Canine scFv (VL-linker-VH); also called P3-59A) scFv: SYELTQPPSVSAALGQGVTISCIGSDTNIGNHYDVQWYQQLPGKSPRTIIYGNSDRPSGVPGRFSGSKSGNTATLTITGIQAEDEADYHCQSYDDDLDGHIVFGGGTHLTVLGGGSSRSSSSGGGGSGGGGEVQLVQSGGDLVKPGGSLRLSCVASGFTFNKYHMSWVRQAPGKGLQWVGKITSDGSATGYADAVKGRFTISRDNAKNTFYLQMDSLRAEDTAMYYCARDQSSWGTGNFDYWGQGTLVTVSSASTTAPSVTSGQAGQHHHHHHGAYPYDVPDYAS | 0.99 ratio to FMC63
10 | scFv 21 (scFv, Canine scFv (VL-linker-VH); also called P3-04; P3-34) scFv: QPVLTQPPSVSVSLGQTATISCSGESLSKYYAQWFQQKAGQAPVLVIYKDTERPSGIPDRFSGSSSGNTHTLTISGARAEDEADYYCESAVSSDTAVFGSGTQLTVLGGGSSRSSSSGGGGSGGGGEVQLVESGGDMVKPGGSLRLSCVASGFTFSSFWMYWVRQAPGKGLQWVGGINSGGSITSYADAVKGRFTISRDNARNTLYLQMDSLRDEDTAVYYCAKPDIYGSFDHWGQGTLVTVSSESPSPPNLTSGQAGQHHHHHHGAYPYDVPDYAS | 0.71 ratio to FMC63
11 | scFv 19 (scFv, Canine scFv (VL-linker-VH); also called P3-35) scFv: QAVLTQPASVSGPLGQRVTISCSGSTNNIGIVGAAWYQQFPGKAPKLLVYSDGSRPSGVPDRFSGSNSGNSATLTISGLQAEDEADYYCQSVDATHGTILFGGGTQLTVLGGGSSRSSSSGGGGSGGGGEVQLVETGGDLVKPAGSLRLSCAASGFPFSGYSMTWVRQAPEKGLQLVAGINSDGSHTYYTDDVKGRFTVSRDNTKYILYLQMNSLRVEDTAIYYCGSHSWGNFHYWGQGTLVTVSSESPSPPNLTSGQAGQHHHHHHGAYPYDVPDYAS | 0.26 ratio to FMC63
12 | scFv 14 (scFv, Canine scFv (VL-linker-VH); also called P3-58) scFv: QSVLNQPPSVSAALGQRITISCTGSHTNIGSGYDVQWYQQLPGKSPRTIIYGNSDRPSGVPVRFSGSKSGNTATLTITGIQAEDEADYYCQSYDDNLNDPYVFGSGTQLTVLGGGSSRSSSSGGGGSGGGGEVQLVQSGGDLVKPGGSLRLSCVASGFAFSGKTMQWVRQAPGKGLQWVAYIQHDGSRTSYADAVKGRFTISRDNAKNTLYLQMDSLRAEDTAVYYCADHPWYGPEYWGQGTPVTVSSESPSPPNLTSGQAGQHHHHHHGAYPYDVPDYAS | 0.59 ratio to FMC63
13 | scFv 23 (scFv, Canine scFv (VL-linker-VH); also called P3-37) scFv: DIVMTQTPLSLSVSPGEPASISCKASQSLLHSNGNTYLYWFRQKPGQSPQRLIYLVSNRDAGVPDRFSGSGSGTDFTLRISRVEADDSGIYYCGQGKQDPITFGEGTHLEIKGGSSRSSSSGGGGSGGGGELTLQESGPGLVKPSQTLSLTCVVSGGSVTTSDYWNWLRQRPGRGLEYMGYWKGRTEYNPAFQGRISITADTAKNQFSLQLNSVTADDTAIYYCAHWGSGNLDYWGPGTLVTVSSESPSPPNLTSGQAGQHHHHHHGAYPYDVPDYAS | 0.36 ratio to FMC63
14 | scFv 1 (scFv, Canine scFv (VL-linker-VH); also called scFv_01; P3-15) scFv: QAVLNQPASVSAALGQRVTISCNTNIGSPYDVQWYQQLPGKSPKTIIYGNSNRPSGVPVRFSGSKSGSTATLTIAGIQAEDEADYYCQSYDDSLDGRVVFGGGTQLTVLGGGSSRSSSSGGGGSGGGGEVQLVESGGDLVKPGGSLRLSCVASGFTFSNHEMYWVRQAPGKGLEWVARIYDSGSRTRYADAVKGRFTISRDNAKNTLYLQMNSLTAEDTAVYFCAGGNSRGWTEFGMDYWGPGTLVTVSSASTTAPSVTSGQAGQHHHHHHGAYPYDVPDYAS | 0.84 ratio to FMC63
15 | scFv 11 (scFv, Canine scFv (VL-linker-VH); also called P3-57) scFv: QPVLTQPPSVSGALGQTVTISCSGSHTNIGSGFDVQWYQQLPGKSPQTLVYANINRPSGVPARFSGSKSGSTATLTITGVQAEDEADYYCQSYDDNFDYVFGSGTQLTVLGGGSSRSSSSGGGGSGGGGEVQLVESGGDLVKPGGSLRLSCVASGFTFSDYSMSWVRQSPGKGLQWVAAIMTSGSTYYADAVKGRFTISRDNAKNTLYLQMDSLRAEDTAVYYCAHDYWFDFWGQGTLVTVSSASTTAPSVTSGQAGQHHHHHHGAYPYDVPDYAS | 0.31 ratio to FMC63
16 | scFv 12 (scFv, Canine scFv (VL-linker-VH); also called P3-48) scFv: SYELTQPPSATVTLRQTARLTCGGENIGRKSVQWYQQKPGQSPLLIIYADSSRPSGIPERFSGANSGNTASLTISGALAEDEADYYCQIWDRNINVFGSGTQLTVLGGGSSRSSSSGGGGSGGGGEEQLVEFGGDLVKPAGSLRLSCVASGFTFSSYDMSWVRQAPGKGLQWVATISYDGSSTYYTDAVKGRFTVSRDNAKNTLYLQMNSLRAEDTALYYCAKDSGSWSHFYGLDTWGHGTSVFVSSASTTAPSVTSGQAGQHHHHHHGAYPYDVPDYAS | 0.16 ratio to FMC63
17 | scFv 16 (scFv, Canine scFv (VL-linker-VH); also called P3-33; P4-01) scFv: QSVLTQPTSVSGSLGQRVTISCTGSSSNVGYGNYVGWYQQLPGTGPRTLIYGSHYRPSGVPDRFSGSSSGSSATLTISGLQAEDEADYYCSSYDSTLSGYVFGSGTQLTILGGGSSRSSSSGGGGSGGGGEVQLVESGGDLVKPGGSLRLSCVGSGFTLSSYWMSWVRQAPGKGLQWIAEISGSGNTIYYGDAVKGRFTISRDNAKNTLYLQMNSLRDEDTAVYYCATEYYWNIDNWGQGTLVTVSSESPFPPNLTSGQAGQHHHHHHGAYPYDVPDYAS | 0.41 ratio to FMC63
